Assay results taken from patent US20250179186A1 (REGENTS OF THE UNIVERSITY OF MINNESOTA, published 2025).

T1: human B7-H3 expressed by Mile Sven 1 cells stably transfected to express human B7-H3 (MS1-B7-H3) (human, UniProt Q5ZPR3 29-534)
T1 construct: whole, on cells; In the FACS sorts it was used as detergent solubilized, non-specifically biotinylated MS1-B7-H3 cell lysate; also called CD276; MS1-B7-H3 cells
T1 sequence (looked up): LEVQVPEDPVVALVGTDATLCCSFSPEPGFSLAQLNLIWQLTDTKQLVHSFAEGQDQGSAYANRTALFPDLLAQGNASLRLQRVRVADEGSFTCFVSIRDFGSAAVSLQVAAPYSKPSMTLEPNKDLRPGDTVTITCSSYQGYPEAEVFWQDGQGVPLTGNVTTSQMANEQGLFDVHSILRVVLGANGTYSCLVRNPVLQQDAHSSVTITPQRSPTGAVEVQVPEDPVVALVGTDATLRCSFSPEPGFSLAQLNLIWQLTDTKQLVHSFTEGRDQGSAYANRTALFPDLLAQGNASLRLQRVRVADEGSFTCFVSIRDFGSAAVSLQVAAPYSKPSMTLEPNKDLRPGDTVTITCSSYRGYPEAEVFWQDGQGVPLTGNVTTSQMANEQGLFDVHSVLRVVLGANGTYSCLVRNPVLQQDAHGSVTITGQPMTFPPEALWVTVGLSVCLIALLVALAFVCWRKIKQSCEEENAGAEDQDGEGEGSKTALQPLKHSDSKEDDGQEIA

B1: Gp2 1.4.3 (designed binder)
chain: KFWATVQHVYSDFGFEVPVYAATLDEALQLAEVRYANSIFMVTRVRPHHHHHH
notes: Purified from E. coli (pET-24b, NheI/BamHI cloning)
B2: Gp2 1.4.4 (designed binder)
chain: KFWATVQHVYSDFGFEAPVYAATLDEALQLAEVQYANSIFTVTRVRPHHHHHH
notes: as for B1
B3: Gp21.4.4-L15-SrtA (designed binder)
chain: KFWATVQHVYSDFGFEAPVYAATLDEALQLAEVQYANSIFTVTRVRPGSGGGSGGGKGGGGTQAKPQIPKDKSKVAGYIEIPDADIKEPVYPGPATPEQLNRGVSFAEENESLDDQNISIAGHTFIDRPNYQFTNLKAAKKGSMVYFKVGNETRKYKMTSIRDVKPTDVGVLDEQKGKDKQLTLITCDDYNEKTGVWEKRKIFVATEVKHHHHHH
notes: range 60-206; also called Gp2-L15-SrtA fusion; Gp2 fusion construct

Key:
[1] = biological target: T1, human B7-H3 expressed by Mile Sven 1 …; test: flow cytometry titration of purified His6-tagged Gp2 on MS1-B7-H3 cells, anti-His6 FITC, 1:1 model
[2] = biological target: T1, human B7-H3 expressed by Mile Sven 1 …; test: flow cytometry titration of purified His6-tagged fusion on MS1-B7-H3 cells, anti-His6 FITC, 1:1 model

Row | Binder | Kd [1] [nM] | Kd [2] [nM]
1 | B1 | 3.4 | 
2 | B2 | 1 | 
3 | B3 |  | 1.8
